Data: PMC9482650, “Quantitative fragmentomics allow affinity mapping of interactomes” (Nature Communications, 2022)

Legend:
Experiment in all cases: holdup assay
Parameters in all cases: key: below the threshold = too weak to quantify, mostly under pKd 3.1 to 4
APBA1_1, Q02410 = target: T1, APBA1_1, Q02410
T1 sequence (Q02410 651-752, limits assumed, looked up): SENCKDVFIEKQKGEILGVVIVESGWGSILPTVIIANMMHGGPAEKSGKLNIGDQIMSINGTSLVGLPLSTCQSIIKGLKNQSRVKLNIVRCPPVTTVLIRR

DLG1_1, Q12959 = target: DLG1_1, Q12959
DLG3_2, Q92796 = target: T2, DLG3_2, Q92796
T2 sequence (Q92796 221-321, limits assumed, looked up): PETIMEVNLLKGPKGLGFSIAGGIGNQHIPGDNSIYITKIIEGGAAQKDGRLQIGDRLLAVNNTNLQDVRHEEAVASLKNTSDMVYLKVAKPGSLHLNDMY

DLG4_1, P78352 = target: DLG4_1, P78352
Sequence of DLG4_1, P78352 (P78352 62-152): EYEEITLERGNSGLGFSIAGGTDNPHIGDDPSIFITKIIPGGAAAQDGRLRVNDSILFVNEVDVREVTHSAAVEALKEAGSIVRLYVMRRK

FRMPD1, Q5SYB0 = target: T3, FRMPD1, Q5SYB0
T3 sequence (Q5SYB0 52-145, limits assumed, looked up): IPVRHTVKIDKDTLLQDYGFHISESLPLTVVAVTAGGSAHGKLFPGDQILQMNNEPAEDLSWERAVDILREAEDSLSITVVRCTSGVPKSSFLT

FRMPD2_1, Q68DX3 = target: FRMPD2_1, Q68DX3
Sequence of FRMPD2_1, Q68DX3 (Q68DX3 770-861): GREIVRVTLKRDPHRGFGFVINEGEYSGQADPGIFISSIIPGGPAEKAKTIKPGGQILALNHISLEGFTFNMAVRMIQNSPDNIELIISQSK

FRMPD3, Q5JV73 = target: FRMPD3, Q5JV73
Sequence of FRMPD3, Q5JV73 (Q5JV73 12-100): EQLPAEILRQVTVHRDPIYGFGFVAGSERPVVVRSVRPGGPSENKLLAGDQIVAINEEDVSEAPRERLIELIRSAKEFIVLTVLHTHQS

GRID2IP_1, A4D2P6 = target: GRID2IP_1, A4D2P6
Sequence of GRID2IP_1, A4D2P6 (A4D2P6 1-87): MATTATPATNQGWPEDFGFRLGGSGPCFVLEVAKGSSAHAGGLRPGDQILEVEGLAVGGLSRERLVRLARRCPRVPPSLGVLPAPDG

GRIP1_3, Q9Y3R0 = target: T4, GRIP1_3, Q9Y3R0
T4 sequence (Q9Y3R0 247-346, limits assumed, looked up): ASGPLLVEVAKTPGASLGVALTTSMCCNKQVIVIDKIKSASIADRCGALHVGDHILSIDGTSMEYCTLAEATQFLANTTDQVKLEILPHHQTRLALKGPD

GRIP1_5, Q9Y3R0 = target: T5, GRIP1_5, Q9Y3R0
T5 sequence (Q9Y3R0 568-668, limits assumed, looked up): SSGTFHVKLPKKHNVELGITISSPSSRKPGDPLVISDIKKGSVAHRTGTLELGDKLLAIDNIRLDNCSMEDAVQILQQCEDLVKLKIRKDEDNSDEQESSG

GRIP2_6, Q9C0E4 = target: GRIP2_6, Q9C0E4
Sequence of GRIP2_6, Q9C0E4 (Q9C0E4 648-740): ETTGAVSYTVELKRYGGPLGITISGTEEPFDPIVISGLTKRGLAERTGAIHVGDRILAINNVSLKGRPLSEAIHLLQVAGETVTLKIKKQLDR

HTRA2, O43464 = target: HTRA2, O43464
Sequence of HTRA2, O43464 (O43464 355-458): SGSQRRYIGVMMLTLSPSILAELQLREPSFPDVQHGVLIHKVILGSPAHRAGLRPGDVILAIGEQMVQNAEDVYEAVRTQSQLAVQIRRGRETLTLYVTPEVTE

LDB3, O75112 = target: LDB3, O75112
Sequence of LDB3, O75112 (O75112 1-94): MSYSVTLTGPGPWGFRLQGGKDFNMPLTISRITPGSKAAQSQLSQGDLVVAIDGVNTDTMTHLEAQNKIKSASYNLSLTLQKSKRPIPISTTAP

LIN7A, O14910 = target: T6, LIN7A, O14910
T6 sequence (O14910 103-200, limits assumed, looked up): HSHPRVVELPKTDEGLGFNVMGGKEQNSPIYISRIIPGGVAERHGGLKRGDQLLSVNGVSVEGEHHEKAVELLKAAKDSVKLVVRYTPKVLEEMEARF

LNX1_2, Q8TBB1 = target: LNX1_2, Q8TBB1
Sequence of LNX1_2, Q8TBB1 (Q8TBB1 371-470): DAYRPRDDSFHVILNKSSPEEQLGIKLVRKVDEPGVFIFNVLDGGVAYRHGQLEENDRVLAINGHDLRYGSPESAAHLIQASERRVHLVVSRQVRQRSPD

MAGI2_3, Q86UL8 = target: MAGI2_3, Q86UL8
Sequence of MAGI2_3, Q86UL8 (Q86UL8 600-682): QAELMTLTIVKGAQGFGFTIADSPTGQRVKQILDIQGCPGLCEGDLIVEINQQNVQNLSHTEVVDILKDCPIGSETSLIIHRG

MAGI2_5, Q86UL8 = target: MAGI2_5, Q86UL8
Sequence of MAGI2_5, Q86UL8 (Q86UL8 915-1017): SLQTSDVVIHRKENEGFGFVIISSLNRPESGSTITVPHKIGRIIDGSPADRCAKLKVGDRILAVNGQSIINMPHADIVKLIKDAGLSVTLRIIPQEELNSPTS

MPDZ_10, O75970 = target: T7, MPDZ_10, O75970
T7 sequence (O75970 1624-1722, limits assumed, looked up): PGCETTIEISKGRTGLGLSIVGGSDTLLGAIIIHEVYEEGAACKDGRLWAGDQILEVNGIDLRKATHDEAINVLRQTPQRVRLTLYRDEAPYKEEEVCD

MPDZ_5, O75970 = target: T8, MPDZ_5, O75970
T8 sequence (O75970 695-796, limits assumed, looked up): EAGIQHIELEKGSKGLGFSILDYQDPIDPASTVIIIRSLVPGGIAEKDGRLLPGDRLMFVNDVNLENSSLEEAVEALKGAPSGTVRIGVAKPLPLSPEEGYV

NHERF3_3, Q5T2W1 = target: T9, NHERF3_3, Q5T2W1
T9 sequence (Q5T2W1 238-333, limits assumed, looked up): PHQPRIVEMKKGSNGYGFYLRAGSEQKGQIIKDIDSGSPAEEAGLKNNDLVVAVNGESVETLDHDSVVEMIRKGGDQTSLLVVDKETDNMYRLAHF

NHERF4_1, Q86UT5-2 = target: NHERF4_1, Q86UT5-2
Sequence of NHERF4_1, Q86UT5-2 (Q86UT5 other isoform, or with tags, fused parts or gaps): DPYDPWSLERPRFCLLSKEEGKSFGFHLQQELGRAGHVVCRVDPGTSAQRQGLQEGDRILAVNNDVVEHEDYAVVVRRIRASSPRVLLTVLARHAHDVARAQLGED

NHERF4_4, Q86UT5 = target: NHERF4_4, Q86UT5
Sequence of NHERF4_4, Q86UT5 (Q86UT5 464-550): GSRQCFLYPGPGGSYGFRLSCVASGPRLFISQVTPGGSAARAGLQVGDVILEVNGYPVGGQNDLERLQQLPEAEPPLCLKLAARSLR

PARD3B_1, Q8TEW8 = target: T10, PARD3B_1, Q8TEW8
T10 sequence (Q8TEW8 196-299, limits assumed, looked up): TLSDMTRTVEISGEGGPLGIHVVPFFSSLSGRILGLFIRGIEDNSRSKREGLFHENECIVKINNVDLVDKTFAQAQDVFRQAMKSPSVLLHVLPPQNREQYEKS

PDLIM1, O00151 = target: PDLIM1, O00151
Sequence of PDLIM1, O00151 (O00151 1-87): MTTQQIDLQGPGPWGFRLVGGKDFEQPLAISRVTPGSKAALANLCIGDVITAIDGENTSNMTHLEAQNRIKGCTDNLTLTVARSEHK

PICK1, Q9NRD5 = target: PICK1, Q9NRD5
Sequence of PICK1, Q9NRD5 (Q9NRD5 17-115): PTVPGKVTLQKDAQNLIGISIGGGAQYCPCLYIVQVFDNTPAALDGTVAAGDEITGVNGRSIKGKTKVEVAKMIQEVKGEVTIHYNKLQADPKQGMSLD

SCRIB_2, Q14160 = target: SCRIB_2, Q14160
Sequence of SCRIB_2, Q14160 (Q14160 857-960): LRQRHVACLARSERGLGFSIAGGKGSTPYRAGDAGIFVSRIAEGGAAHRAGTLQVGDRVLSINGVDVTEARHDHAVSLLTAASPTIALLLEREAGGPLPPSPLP

SNTG1, Q9NSN8 = target: T11, SNTG1, Q9NSN8
T11 sequence (Q9NSN8 52-150, limits assumed, looked up): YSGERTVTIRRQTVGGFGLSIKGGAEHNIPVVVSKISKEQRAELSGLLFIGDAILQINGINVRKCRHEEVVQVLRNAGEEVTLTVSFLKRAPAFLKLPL

[1] = plain residues with an end cap or a label only (N-terminal biotin on a linker: ttds)
[2] = plain residues with an end cap or a label only (N-terminal biotin on a linker: ahx)
[3] = plain residues with an end cap or a label only (N-terminal biotin on a linker: gsgsgs; C-terminal amide)

B1: LRP4, O75096 (peptide)
chain: ERKLSSESQV
pKd (APBA1_1, Q02410; [1]): below the threshold | pKd (DLG1_1, Q12959; [1]): 3.82 | pKd (DLG3_2, Q92796; [1]): 4.6 | pKd (DLG4_1, P78352; [1]): 4.17 | pKd (FRMPD1, Q5SYB0; [1]): below the threshold | pKd (FRMPD2_1, Q68DX3; [1]): below the threshold | pKd (FRMPD3, Q5JV73; [1]): below the threshold | pKd (GRID2IP_1, A4D2P6; [1]): below the threshold | pKd (GRIP1_3, Q9Y3R0; [1]): below the threshold | pKd (GRIP1_5, Q9Y3R0; [1]): below the threshold | pKd (GRIP2_6, Q9C0E4; [1]): below the threshold | pKd (HTRA2, O43464; [1]): below the threshold | pKd (LDB3, O75112; [1]): below the threshold | pKd (LIN7A, O14910; [1]): below the threshold | pKd (LNX1_2, Q8TBB1; [1]): below the threshold | pKd (MAGI2_3, Q86UL8; [1]): below the threshold | pKd (MAGI2_5, Q86UL8; [1]): 4.08 | pKd (MPDZ_10, O75970; [1]): below the threshold | pKd (MPDZ_5, O75970; [1]): below the threshold | pKd (NHERF3_3, Q5T2W1; [1]): below the threshold | pKd (NHERF4_1, Q86UT5-2; [1]): below the threshold | pKd (NHERF4_4, Q86UT5; [1]): below the threshold | pKd (PARD3B_1, Q8TEW8; [1]): below the threshold | pKd (PDLIM1, O00151; [1]): below the threshold | pKd (PICK1, Q9NRD5; [1]): below the threshold | pKd (SCRIB_2, Q14160; [1]): 3.66 | pKd (SNTG1, Q9NSN8; [1]): 4.37

B2: HPV67-E6, A4U7F2 (peptide)
chain: SRPQRTQTQV
pKd (APBA1_1, Q02410; [1]): below the threshold | pKd (DLG1_1, Q12959; [1]): 4.52 | pKd (DLG3_2, Q92796; [1]): 5.06 | pKd (DLG4_1, P78352; [1]): 4.58 | pKd (FRMPD1, Q5SYB0; [1]): below the threshold | pKd (FRMPD2_1, Q68DX3; [1]): 3.79 | pKd (FRMPD3, Q5JV73; [1]): below the threshold | pKd (GRID2IP_1, A4D2P6; [1]): below the threshold | pKd (GRIP1_3, Q9Y3R0; [1]): below the threshold | pKd (GRIP1_5, Q9Y3R0; [1]): below the threshold | pKd (GRIP2_6, Q9C0E4; [1]): below the threshold | pKd (HTRA2, O43464; [1]): below the threshold | pKd (LDB3, O75112; [1]): below the threshold | pKd (LIN7A, O14910; [1]): below the threshold | pKd (LNX1_2, Q8TBB1; [1]): below the threshold | pKd (MAGI2_3, Q86UL8; [1]): below the threshold | pKd (MAGI2_5, Q86UL8; [1]): 3.94 | pKd (MPDZ_10, O75970; [1]): 3.4 | pKd (MPDZ_5, O75970; [1]): below the threshold | pKd (NHERF3_3, Q5T2W1; [1]): below the threshold | pKd (NHERF4_1, Q86UT5-2; [1]): below the threshold | pKd (NHERF4_4, Q86UT5; [1]): below the threshold | pKd (PARD3B_1, Q8TEW8; [1]): below the threshold | pKd (PDLIM1, O00151; [1]): below the threshold | pKd (PICK1, Q9NRD5; [1]): below the threshold | pKd (SCRIB_2, Q14160; [1]): 3.4 | pKd (SNTG1, Q9NSN8; [1]): below the threshold

B3: CNKSR2, Q8WXI2 (peptide)
chain: HTHSYIETHV
pKd (APBA1_1, Q02410; [2]): below the threshold | pKd (DLG1_1, Q12959; [2]): 4.62 | pKd (DLG3_2, Q92796; [2]): 5.04 | pKd (DLG4_1, P78352; [2]): 4.4 | pKd (FRMPD1, Q5SYB0; [2]): below the threshold | pKd (FRMPD2_1, Q68DX3; [2]): below the threshold | pKd (FRMPD3, Q5JV73; [2]): below the threshold | pKd (GRID2IP_1, A4D2P6; [2]): below the threshold | pKd (GRIP1_3, Q9Y3R0; [2]): below the threshold | pKd (GRIP1_5, Q9Y3R0; [2]): below the threshold | pKd (GRIP2_6, Q9C0E4; [2]): below the threshold | pKd (HTRA2, O43464; [2]): below the threshold | pKd (LDB3, O75112; [2]): below the threshold | pKd (LIN7A, O14910; [2]): below the threshold | pKd (LNX1_2, Q8TBB1; [2]): below the threshold | pKd (MAGI2_3, Q86UL8; [2]): 3.98 | pKd (MAGI2_5, Q86UL8; [2]): 4.83 | pKd (MPDZ_10, O75970; [2]): below the threshold | pKd (MPDZ_5, O75970; [2]): below the threshold | pKd (NHERF3_3, Q5T2W1; [2]): below the threshold | pKd (NHERF4_1, Q86UT5-2; [2]): below the threshold | pKd (NHERF4_4, Q86UT5; [2]): below the threshold | pKd (PARD3B_1, Q8TEW8; [2]): below the threshold | pKd (PDLIM1, O00151; [2]): below the threshold | pKd (PICK1, Q9NRD5; [2]): below the threshold | pKd (SCRIB_2, Q14160; [2]): 5.31 | pKd (SNTG1, Q9NSN8; [2]): 4.9

B4: AXIN1_int, O15169 (peptide)
chain: TLSLTDSSVDGIPPYR
pKd (APBA1_1, Q02410; [3]): below the threshold | pKd (DLG1_1, Q12959; [3]): below the threshold | pKd (DLG3_2, Q92796; [3]): 4.08 | pKd (DLG4_1, P78352; [3]): below the threshold | pKd (FRMPD1, Q5SYB0; [3]): below the threshold | pKd (FRMPD2_1, Q68DX3; [3]): below the threshold | pKd (FRMPD3, Q5JV73; [3]): below the threshold | pKd (GRID2IP_1, A4D2P6; [3]): below the threshold | pKd (GRIP1_3, Q9Y3R0; [3]): below the threshold | pKd (GRIP1_5, Q9Y3R0; [3]): below the threshold | pKd (GRIP2_6, Q9C0E4; [3]): below the threshold | pKd (HTRA2, O43464; [3]): below the threshold | pKd (LDB3, O75112; [3]): below the threshold | pKd (LIN7A, O14910; [3]): below the threshold | pKd (LNX1_2, Q8TBB1; [3]): below the threshold | pKd (MAGI2_3, Q86UL8; [3]): below the threshold | pKd (MAGI2_5, Q86UL8; [3]): below the threshold | pKd (MPDZ_10, O75970; [3]): below the threshold | pKd (MPDZ_5, O75970; [3]): below the threshold | pKd (NHERF3_3, Q5T2W1; [3]): below the threshold | pKd (NHERF4_1, Q86UT5-2; [3]): below the threshold | pKd (NHERF4_4, Q86UT5; [3]): below the threshold | pKd (PARD3B_1, Q8TEW8; [3]): below the threshold | pKd (PDLIM1, O00151; [3]): below the threshold | pKd (PICK1, Q9NRD5; [3]): below the threshold | pKd (SCRIB_2, Q14160; [3]): below the threshold | pKd (SNTG1, Q9NSN8; [3]): below the threshold
